Molecular target: T1, ΔN100 y-mtRNAP (yeast mitochondrial RNA polymerase, RPO41) (Saccharomyces cerevisiae, UniProt P13433 101-1351)
T1 sequence (looked up): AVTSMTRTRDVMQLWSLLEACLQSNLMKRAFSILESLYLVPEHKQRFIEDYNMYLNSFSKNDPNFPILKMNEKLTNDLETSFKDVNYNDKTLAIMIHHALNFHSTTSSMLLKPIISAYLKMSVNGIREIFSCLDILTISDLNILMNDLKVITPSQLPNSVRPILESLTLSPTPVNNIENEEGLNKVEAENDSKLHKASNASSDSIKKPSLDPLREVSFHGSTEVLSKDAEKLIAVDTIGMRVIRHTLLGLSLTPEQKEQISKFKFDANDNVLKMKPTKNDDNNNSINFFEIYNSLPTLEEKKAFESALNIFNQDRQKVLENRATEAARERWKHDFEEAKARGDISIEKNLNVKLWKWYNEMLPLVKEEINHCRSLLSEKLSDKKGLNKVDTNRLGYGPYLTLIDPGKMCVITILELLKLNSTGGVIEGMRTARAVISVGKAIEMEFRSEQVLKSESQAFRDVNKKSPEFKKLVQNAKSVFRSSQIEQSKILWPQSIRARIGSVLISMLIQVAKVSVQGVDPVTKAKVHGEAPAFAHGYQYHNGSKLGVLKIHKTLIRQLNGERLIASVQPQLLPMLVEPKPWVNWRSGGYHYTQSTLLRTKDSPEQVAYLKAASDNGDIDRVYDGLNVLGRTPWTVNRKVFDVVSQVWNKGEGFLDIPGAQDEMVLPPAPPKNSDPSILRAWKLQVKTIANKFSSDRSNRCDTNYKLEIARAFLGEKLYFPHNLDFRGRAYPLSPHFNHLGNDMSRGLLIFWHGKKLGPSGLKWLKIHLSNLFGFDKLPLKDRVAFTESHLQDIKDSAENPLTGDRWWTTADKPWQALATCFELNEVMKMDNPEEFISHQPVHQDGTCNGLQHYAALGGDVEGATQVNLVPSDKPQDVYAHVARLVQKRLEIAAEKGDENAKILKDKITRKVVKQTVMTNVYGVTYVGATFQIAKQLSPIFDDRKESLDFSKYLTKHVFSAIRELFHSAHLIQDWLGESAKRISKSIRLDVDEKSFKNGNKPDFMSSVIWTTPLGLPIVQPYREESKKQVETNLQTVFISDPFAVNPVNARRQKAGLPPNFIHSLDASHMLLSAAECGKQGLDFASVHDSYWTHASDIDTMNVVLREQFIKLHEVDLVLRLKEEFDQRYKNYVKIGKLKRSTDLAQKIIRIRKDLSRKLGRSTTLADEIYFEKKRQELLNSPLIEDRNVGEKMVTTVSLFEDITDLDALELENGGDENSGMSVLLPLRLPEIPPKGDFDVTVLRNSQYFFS
Assay: cryo-EM structure

binding result: binds
B1: MTF1 (yeast mitochondrial transcription factor) (natural protein, Saccharomyces cerevisiae)
chain: SVPIPGIKDISKLKFFYGFKYLWNPTVYNKIFDKLDLTKTYKHPEELKVLDLYPGVGIQSAIFYNKYCPRQYSLLEKRSSLYKFLNAKFEGSPLQILKRDPYDWSTYSNLIDEERIFVPEVQSSDHINDKFLTVANVTGEGSEGLIMQWLSCIGNKNWLYRFGKVKMLLWMPSTTARKLLARPGMHSRSKCSVVREAFTDTKLIAISDANELKGFDSQCIEEWDPILFSAAEIWPTKGKPIALVEMDPIDFDFDVDNWDYVTRHLMILKRTPLNTVMDSLGHGGQQYFNSRITDKDLLKKCPIDLTNDEFIYLTKLFMEWPFKPDILMDFVDMYQTEHSG

From publication doi:10.1101/2022.09.27.509796 (bioRxiv, 2022)
